Our source for the stoichiometry N, Kd and dH values is paper PMC9938351.

By stoichiometry N is commonly meant the number of molecules, sites or subunits per partner or assembly. As usually defined, the Kd is the concentration at which binding is half-saturated. Read a high Kd as a looser complex.

Assay [1] concerns the target SARS-CoV-2 ubiquitin-like domain 1 (Ubl1) of Nsp3 (residues 1–111) (SARS-CoV-2). Kind of assay: dynamic light scattering.
The target is the same in assay [2]. The assay is described as follows: cross-linking.
The target in assay [3] is SARS-CoV-2 nucleocapsid (N) protein (residues 1–419) (SARS-CoV-2) (UniProt P0DTC9). The assay is described as follows: ITC. In general terms: ITC needs no label: the signal is the heat of the interaction.

In turn, “SARS-CoV-2 N protein N-terminal domain (NTD, residues 47–174) (from UniProt P0DTC9 47-174) (domain or fragment)” displayed a stoichiometry N in assay [1] of 0.5 NTD per Ubl1.

“SARS-CoV-2 ubiquitin-like domain 1 (Ubl1) of Nsp3 (residues 1–111) (domain or fragment)”: the stoichiometry N in assay [2] is 2. Also, in assay [3], the Kd was 800 nM, the dH is -14.9 kcal/mol and the stoichiometry N came out at 1.19.
